The values below come from patent publication US20250057968A1, “ANTI-DLL3 ANTIBODY AND PHARMACEUTICAL USE THEREOF, AND ANTIBODY-DRUG CONJUGATE CONTAINING ANTI-DLL3 ANTIBODY” (Jiangsu Hengrui Pharmaceuticals Co., Ltd., priority 2021, published 2025).

What is called Kd is the constant that tells how readily two partners part at equilibrium. As usually defined, the EC50 is the concentration that produces a half-maximal response. A low value points to greater potency. What is called koff is a measure of how fast the partners let go of each other. By kon is commonly meant the second-order rate constant of association. A higher kon goes with fast association.

For assay [1], the target named is T1, mouse DLL3 (KACTUS, DLL-MM103) (mouse, UniProt O88516 33-490, limits assumed).
T1 construct: bought antigen of the Biacore assay; construct not described
T1 sequence (looked up): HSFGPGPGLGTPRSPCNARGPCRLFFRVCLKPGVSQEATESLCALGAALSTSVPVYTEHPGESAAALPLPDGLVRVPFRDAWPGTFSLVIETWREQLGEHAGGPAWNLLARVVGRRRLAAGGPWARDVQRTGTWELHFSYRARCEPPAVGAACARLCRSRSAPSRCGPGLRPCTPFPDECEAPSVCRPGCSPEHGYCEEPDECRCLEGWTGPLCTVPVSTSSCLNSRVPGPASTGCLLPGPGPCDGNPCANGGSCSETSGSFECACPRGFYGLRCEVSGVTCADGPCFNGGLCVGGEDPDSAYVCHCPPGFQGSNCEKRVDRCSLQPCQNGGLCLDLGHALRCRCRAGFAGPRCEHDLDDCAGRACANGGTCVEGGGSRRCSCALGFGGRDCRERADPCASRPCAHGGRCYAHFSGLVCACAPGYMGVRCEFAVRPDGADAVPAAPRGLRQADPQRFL
Nature of the assay: SPR (Biacore 8K), antibody captured on Protein A chip, 1:1 fit. The source says:
(§1) Test antibodies were affinity-captured with a Protein A biosensor chip (Cat. #29127556, Cytiva) for 18 seconds, and then the antigens human DLL3 (ACRO, DLL3-H52H4), cynomolgus monkey DLL3 (KACTUS, DLL-RM103), and mouse DLL3 (KACTUS, DLL-MM103) were allowed to flow over the surface of the chip for 180 seconds, followed by 600 seconds of dissociation. Reaction signals were detected in real time using a Biacore 8K (Cytiva) instrument to obtain association and dissociation curves. After the dissociation in each experimental cycle, the biosensor chip was washed and regenerated with a 10 mM glycine-hydrochloric acid solution (pH 1.5) (Cat. #BR-1003-54, Cytiva). A 1:1 model was fit to the data. The results are shown in Table 12-1, Table 12-2, and Table 12-3.
On the technique in general: SPR reads the build-up and loss of mass on a sensor chip optically.

Assay [2] deals with T2, Rat DLL3 full-length protein on CHO-s cells (rat, UniProt O88671 33-589).
T2 construct: also called RatDLL3/CHO-s; ratDLL3/CHO-s
T2 sequence: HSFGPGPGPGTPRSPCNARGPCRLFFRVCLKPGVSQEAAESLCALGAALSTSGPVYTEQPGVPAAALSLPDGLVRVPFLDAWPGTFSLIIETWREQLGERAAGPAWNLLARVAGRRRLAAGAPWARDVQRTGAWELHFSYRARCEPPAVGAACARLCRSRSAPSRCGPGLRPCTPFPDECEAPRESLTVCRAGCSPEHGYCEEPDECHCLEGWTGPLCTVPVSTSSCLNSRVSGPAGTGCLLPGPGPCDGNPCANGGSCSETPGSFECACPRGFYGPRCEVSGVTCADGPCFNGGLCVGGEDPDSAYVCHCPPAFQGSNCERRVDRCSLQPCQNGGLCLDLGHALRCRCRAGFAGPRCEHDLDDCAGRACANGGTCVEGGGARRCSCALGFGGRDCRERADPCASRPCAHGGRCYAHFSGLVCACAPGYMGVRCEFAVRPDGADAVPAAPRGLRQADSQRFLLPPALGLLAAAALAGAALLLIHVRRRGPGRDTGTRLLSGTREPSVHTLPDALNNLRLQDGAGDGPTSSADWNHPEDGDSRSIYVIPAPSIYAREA
The assay is described as follows: FACS on RatDLL3/CHO-s cells. The method, then: Cells of the DLL3-expressing small cell lung cancer cell lines H1184 (ATCC, Cat. No. CRL-5858), DLL3/H82, cynoDLL3/CHO-s, and RatDLL3/CHO-s were suspended at 1×10^6/mL in FACS buffer (1% BSA+pH 7.4 PBS), and the cell suspensions were added to a 96-well round-bottom plate (Corning, 3795) at 100 μL/well. The plate was centrifuged at 300 g for 5 min, and the supernatant was removed. Different concentrations of test antibodies were added at 100 μL/well. The plate was incubated in the dark in a refrigerator at 4° C. for 1 h. After 3 washes by centrifugation at 300 g, working concentrations of APC anti-human IgG Fc (BioLegend, 410712) or PE F(ab′)2-goat anti-human IgG (invitrogen, H10104) were added. The plate was incubated in the dark in a refrigerator at 4° C. for 40 min. After 3 washes by centrifugation at 300 g, the geometric mean fluorescence intensity was measured on an Invitrogen flow cytometer, and the EC50 values of the antibodies in binding to DLL3-expressing cells were calculated.

The target of assay [3] is T3, human DLL3 (ACRO, DLL3-H52H4) (human, UniProt Q9NYJ7 27-479).
T3 construct: bought antigen of the Biacore assay; construct not described
T3 sequence (looked up): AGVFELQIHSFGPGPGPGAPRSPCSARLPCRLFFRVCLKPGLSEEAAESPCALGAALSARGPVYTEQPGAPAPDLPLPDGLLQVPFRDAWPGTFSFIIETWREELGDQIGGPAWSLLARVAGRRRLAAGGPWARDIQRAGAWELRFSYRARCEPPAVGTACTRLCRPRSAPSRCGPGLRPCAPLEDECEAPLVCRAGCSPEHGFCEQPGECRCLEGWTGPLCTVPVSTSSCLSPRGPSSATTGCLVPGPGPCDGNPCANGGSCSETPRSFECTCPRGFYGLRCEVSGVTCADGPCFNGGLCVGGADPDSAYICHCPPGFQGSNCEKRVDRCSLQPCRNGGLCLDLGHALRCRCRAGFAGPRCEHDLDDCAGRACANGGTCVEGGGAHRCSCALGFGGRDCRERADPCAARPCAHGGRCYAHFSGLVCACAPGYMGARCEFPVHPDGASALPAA
The assay is described as follows: SPR (Biacore 8K), antibody captured on Protein A chip, 1:1 fit.
Description: as §1

B1: Hu6 (antibody, human IgG1, kappa, V domains shown)
VH: EVQLVQSGSELKKPGASVKVSCKASGYTFTDYYMNWVRQAPGQGLEWMGIINPYSGVTIYNHKFKGRFALSVDKSSNTAYLQISSLKAEDTAVYYCARQDSLLDYAMDYWGQGTTVTVSS
VL: DIQMTQSPSSLSASVGDRVTITCHASQGISGNMGWLQQKPGKAPKGLIYHGANLEDGVPSRFSGSGSGADYTLTISSLQPEDFADYYCVQYAQFPYTFGGGTKVEIKR
notes: also called hAb6L4H12
In assay [1], B1 returned a Kd of 6.52 nM. For the same molecule, the EC50 in assay [2] was 1.42 nM.

B2: Hu100 (antibody, human IgG1, kappa, V domains shown)
VH: EVQLVESGGGLVKPGGSLRLSCAASGFTFSDSGMHWIRQAPGKGLEWVSYISSGSSTIHYADTVKGRFTISRDNAKNSLYLQMNSLRAEDTAVYYCASPLYYYGRSYNAVAYWGQGTTVTVSS
VL: DIQMTQSPSSLSASVGDRVTITCHASQNINVWLSWYQQKPGKVPKLLIYKASDLHTGVPSRFSGSGSGTDFTLTISSLQPEDVATYYCQQGQSYPLTFGGGTKVEIKR
notes: also called hAb100L1H1
Take B2: in assay [2], the binding result was “no binding”. In assay [3], this molecule came in with a Kd of 0.436 nM, a koff of 0.000374 s⁻¹ and a kon of 858000 M⁻¹ s⁻¹.
